Experimental data as given in paper PMC6797613, “Crystal Structure Of Photorespiratory Alanine:Glyoxylate Aminotransferase 1 (AGT1) From Arabidopsis thaliana” (Frontiers in Plant Science, 2019).

Molecular target: the molecule itself
Test: crystal structure; crystals grown by vapor diffusion from 4.1-4.2 M sodium formate, protein 11 mg/ml in 0.2 mM PLP, 10% glycerol, 100 mM Tris-HCl pH 8.5, room temperature; without or with 20 mM L-serine; data collected at 25°C; dimer by crystallographic dyad, tetramer by noncrystallographic two-fold axis

B1: alanine:glyoxylate aminotransferase 1 (AGT1) from Arabidopsis thaliana (enzyme, UniProt Q56YA5 1-401, looked up)
chain: MDYMYGPGRHHLFVPGPVNIPEPVIRAMNRNNEDYRSPAIPALTKTLLEDVKKIFKTTSGTPFLFPTTGTGAWESALTNTLSPGDRIVSFLIGQFSLLWIDQQKRLNFNVDVVESDWGQGANLQVLASKLSQDENHTIKAICIVHNETATGVTNDISAVRTLLDHYKHPALLLVDGVSSICALDFRMDEWGVDVALTGSQKALSLPTGLGIVCASPKALEATKTSKSLKVFFDWNDYLKFYKLGTYWPYTPSIQLLYGLRAALDLIFEEGLENIIARHARLGKATRLAVEAWGLKNCTQKEEWISNTVTAVMVPPHIDGSEIVRRAWQRYNLSLGLGLNKVAGKVFRIGHLGNVNELQLLGCLAGVEMILKDVGYPVVMGSGVAAASTYLQHHIPLIPSRI
notes: alanine:glyoxylate aminotransferase 1 (AGT1), Arabidopsis thaliana, AGI At2G13360, full length (residues 2/3-401 seen in the crystal); Untagged recombinant protein from a pET28a-derived plasmid (construct as in Liepman and Olsen, 2001); Catalytic dimer; an apparent tetramer (dimer of dimers) is seen in the crystal only; also called Arabidopsis AGT1; serine:glyoxylate aminotransferase; source: E. …
  stoichiometry N: 2
